Consider two molecules from patent US20160039895A1 (published 2016).

The target of test [1] is T1, porcine αvβ3 integrin on PAE cells (porcine, UniProt A0A5K1V6L8 31-1052; A0A8D0RDV2 33-793).
T1 construct: whole, on cells
Put plainly: flow cytometry on PAE cells. For orientation: A flow cytometer gives signals particle by particle.

Test [2] deals with T2, human αvβ3 integrin on cells (human, UniProt P06756 31-1048; P05106 27-788).
T2 construct: whole, on cells; also called avb3; alpha v beta 3
Put plainly: flow cytometry on K562-αvβ3 cells.

Test [3] concerns the target T3, human VEGFR2 on cells (PAE/KDR cells, HUVEC) (human, UniProt P35968 20-1356).
T3 construct: whole, on cells
Briefly: flow cytometry titration on HUVEC, anti-FLAG detection.

In test [4] the target is T4, VEGFR2 on SVR angiosarcoma cells (murine cell line) (murine, UniProt P35918 20-1345).
T4 construct: whole, on cells
Put plainly: flow cytometry titration on SVR cells, anti-FLAG detection.

Test [5] deals with T3, human VEGFR2 on cells (PAE/KDR cells, …). Briefly: flow cytometry titration on PAE/KDR cells, anti-FLAG detection.
In test [6] the target is T5, recombinant human VEGFR2 extracellular domain (human, UniProt P35968 20-764).
T5 construct: extracellular domain; also called KDR; Flk-1
Put plainly: SPR (BIAcore 3000), VEGFR2 amine-coupled to CM5 chip, scVEGF as analyte, 1:1 model. A general note: Surface plasmon resonance follows binding to a sensor surface in real time, without labels.

Test [7] has as its target T4, VEGFR2 on SVR angiosarcoma cells …. Briefly: flow cytometry on SVR cells.
The target in test [8] is T6, α5β1 integrin on wild-type K562 cells (UniProt P08648 42-1049; P05556 21-798, limits assumed).
T6 construct: whole, on cells
Briefly: flow cytometry on wild-type K562 cells.

In test [9] the target is T7, αvβ5 integrin on transfected K562 cells (UniProt P06756 31-1048; P18084 24-799, limits assumed).
T7 construct: whole, on cells
Put plainly: flow cytometry on K562 cells transfected with αvβ5.

For test [10], the target named is T8, αiibβ3 integrin on transfected K562 cells (UniProt P08514 32-1039; P05106 27-788, limits assumed).
T8 construct: whole, on cells
Put plainly: flow cytometry on K562 cells transfected with αiibβ3.

The target in test [11] is T2, human αvβ3 integrin on cells. Put plainly: flow cytometry on U87MG cells (no VEGFR2; receptor not named by the filing).

T3 sequence (P35968 20-1356): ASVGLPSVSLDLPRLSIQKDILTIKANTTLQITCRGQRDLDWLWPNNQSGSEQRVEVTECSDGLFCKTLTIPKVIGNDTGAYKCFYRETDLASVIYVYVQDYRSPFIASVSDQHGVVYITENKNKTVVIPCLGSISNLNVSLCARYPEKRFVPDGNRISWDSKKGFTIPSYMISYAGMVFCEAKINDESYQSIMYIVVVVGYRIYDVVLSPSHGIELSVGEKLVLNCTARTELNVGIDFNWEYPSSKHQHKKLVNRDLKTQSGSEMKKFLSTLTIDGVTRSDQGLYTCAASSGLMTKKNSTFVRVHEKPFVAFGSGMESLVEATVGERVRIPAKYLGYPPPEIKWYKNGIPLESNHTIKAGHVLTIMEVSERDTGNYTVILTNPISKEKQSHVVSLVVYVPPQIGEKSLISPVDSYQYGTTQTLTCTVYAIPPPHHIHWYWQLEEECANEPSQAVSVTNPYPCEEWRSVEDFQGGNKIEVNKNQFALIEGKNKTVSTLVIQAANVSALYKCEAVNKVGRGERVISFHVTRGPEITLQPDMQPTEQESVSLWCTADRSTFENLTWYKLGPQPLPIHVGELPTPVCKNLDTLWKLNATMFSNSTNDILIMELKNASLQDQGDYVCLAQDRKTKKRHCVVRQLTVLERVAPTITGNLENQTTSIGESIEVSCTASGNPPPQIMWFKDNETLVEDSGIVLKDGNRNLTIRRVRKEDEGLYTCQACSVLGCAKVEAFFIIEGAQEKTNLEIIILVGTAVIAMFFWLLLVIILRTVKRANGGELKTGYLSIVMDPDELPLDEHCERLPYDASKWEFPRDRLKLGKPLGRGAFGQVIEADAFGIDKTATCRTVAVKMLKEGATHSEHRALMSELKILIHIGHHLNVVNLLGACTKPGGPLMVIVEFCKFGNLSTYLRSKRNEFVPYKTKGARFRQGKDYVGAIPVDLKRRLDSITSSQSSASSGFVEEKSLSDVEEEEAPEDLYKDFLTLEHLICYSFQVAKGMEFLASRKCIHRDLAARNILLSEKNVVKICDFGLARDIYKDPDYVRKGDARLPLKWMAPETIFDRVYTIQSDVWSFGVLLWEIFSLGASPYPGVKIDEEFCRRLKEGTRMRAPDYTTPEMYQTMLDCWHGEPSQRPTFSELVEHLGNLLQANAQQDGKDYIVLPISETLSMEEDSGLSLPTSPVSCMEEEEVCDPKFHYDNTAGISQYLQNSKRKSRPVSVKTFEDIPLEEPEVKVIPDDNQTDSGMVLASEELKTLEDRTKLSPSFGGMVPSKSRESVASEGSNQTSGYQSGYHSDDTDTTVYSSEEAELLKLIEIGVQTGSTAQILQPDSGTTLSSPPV
T5 sequence (P35968 20-764): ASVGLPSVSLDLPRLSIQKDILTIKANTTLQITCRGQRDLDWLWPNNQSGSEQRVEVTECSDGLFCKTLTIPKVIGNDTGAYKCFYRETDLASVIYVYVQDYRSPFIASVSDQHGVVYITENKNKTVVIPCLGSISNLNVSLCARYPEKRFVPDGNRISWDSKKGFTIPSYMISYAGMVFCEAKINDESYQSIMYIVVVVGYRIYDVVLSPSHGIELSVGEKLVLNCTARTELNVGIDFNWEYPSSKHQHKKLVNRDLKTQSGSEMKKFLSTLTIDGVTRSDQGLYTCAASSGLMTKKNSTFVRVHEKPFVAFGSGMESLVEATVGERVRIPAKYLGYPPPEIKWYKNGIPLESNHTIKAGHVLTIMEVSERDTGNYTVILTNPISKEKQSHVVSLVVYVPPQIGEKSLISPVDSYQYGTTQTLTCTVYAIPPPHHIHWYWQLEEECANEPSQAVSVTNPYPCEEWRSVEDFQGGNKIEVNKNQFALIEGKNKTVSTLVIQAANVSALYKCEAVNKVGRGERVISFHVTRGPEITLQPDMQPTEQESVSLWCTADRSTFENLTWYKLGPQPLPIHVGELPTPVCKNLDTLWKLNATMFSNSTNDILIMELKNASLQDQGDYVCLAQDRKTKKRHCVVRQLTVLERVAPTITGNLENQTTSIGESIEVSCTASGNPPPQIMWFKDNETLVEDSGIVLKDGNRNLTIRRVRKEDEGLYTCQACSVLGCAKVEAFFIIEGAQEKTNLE
T4 sequence (P35918 20-1345): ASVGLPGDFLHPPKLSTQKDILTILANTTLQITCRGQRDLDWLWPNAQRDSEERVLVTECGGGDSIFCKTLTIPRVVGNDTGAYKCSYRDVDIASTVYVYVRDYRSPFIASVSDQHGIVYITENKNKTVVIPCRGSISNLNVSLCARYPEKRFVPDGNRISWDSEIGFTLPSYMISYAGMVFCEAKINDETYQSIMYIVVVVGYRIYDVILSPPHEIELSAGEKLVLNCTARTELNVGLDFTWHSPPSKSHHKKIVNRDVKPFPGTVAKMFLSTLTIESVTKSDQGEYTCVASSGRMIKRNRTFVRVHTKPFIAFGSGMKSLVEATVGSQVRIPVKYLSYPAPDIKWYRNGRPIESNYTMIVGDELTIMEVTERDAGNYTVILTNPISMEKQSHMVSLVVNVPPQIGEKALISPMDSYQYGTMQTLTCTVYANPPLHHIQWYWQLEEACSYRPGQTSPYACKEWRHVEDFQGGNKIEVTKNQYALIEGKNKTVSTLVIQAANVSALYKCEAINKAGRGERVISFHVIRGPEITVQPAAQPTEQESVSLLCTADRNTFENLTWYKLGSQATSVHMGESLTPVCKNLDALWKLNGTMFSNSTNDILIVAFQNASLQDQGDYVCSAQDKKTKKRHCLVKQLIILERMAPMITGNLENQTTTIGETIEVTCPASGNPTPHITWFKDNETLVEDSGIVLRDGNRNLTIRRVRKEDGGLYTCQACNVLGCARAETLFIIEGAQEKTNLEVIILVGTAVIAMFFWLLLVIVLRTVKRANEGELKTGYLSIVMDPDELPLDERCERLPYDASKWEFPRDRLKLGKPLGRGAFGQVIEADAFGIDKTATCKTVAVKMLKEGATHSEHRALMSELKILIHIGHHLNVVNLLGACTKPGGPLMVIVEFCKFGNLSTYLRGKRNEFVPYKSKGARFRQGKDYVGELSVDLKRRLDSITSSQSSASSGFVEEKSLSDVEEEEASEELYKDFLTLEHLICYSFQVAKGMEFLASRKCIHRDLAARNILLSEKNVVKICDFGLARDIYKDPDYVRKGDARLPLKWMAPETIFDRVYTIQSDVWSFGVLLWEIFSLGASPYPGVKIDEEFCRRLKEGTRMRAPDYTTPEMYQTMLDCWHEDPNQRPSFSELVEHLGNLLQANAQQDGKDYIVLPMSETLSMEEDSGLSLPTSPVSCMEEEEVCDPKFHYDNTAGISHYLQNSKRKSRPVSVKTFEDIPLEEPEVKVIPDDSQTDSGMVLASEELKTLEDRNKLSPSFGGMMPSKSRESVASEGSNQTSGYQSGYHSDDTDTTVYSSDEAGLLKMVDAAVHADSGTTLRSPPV

B1: scVEGFwt (ligand)
chain: YVEVVKFMDVYQRSYCHPIETLVDIFQEYPDEIEYIFKPSCVPLMRCGGCCNDEGLECVPTEESNITMQIMRIKPHQGQHIGEMSFLQHNKCECRPKKDGSTSGSGKSSEGKGEVVKFMDVYQRSYCHPIETLVDIFQEYPDEIEYIFKPSCVPLMRCGGCCNDEGLECVPTEESNITMQIMRIKPHQGQHIGEMSFLQHNKCECRPKKDTR
notes: also called wild-type scVEGF; single-chain VEGF
On to B1, for which the binding result in test [1] and in test [2] was “no binding (tested: 1 µM)” each time. The Kd in test [3] stood at 28 nM; in test [4], 32 nM; in [5], 9.8 nM; in test [6], 4 nM. The koff in test [6] came to 0.0007 s⁻¹. Further, the kon in test [6] is 200000 M⁻¹ s⁻¹.

B2: scVEGF-mM (designed binder)
chain: EVVKAMDVYRRSYCHPVETSVDILQEYPDEIEYIFKPSCVPLMRCGGCCNDAGLECVPTEESNTTMQIMRIKPYRGQHIGEMSFLQHNKCECRPKKDGSTSGSGKSSEGKGEVVKFMDVYQRSYCHPIETLVDIFQEYPDEIEYAFKPSCVSLMRCGGCCNNEGLECVPTEESNITVQIMGAKPHQGQHIGEMSFLQHNKCECRPKKD
notes: Soluble protein with C-terminal hexahistidine tag, with or without N-terminal FLAG tag (tags not included in the parts); also called scVEGFmut-M
Consider B2, for which the binding result is “no binding (tested: 1 µM)” in test [1]; “no binding (tested: 1 µM)” in test [7]; “no binding” in test [8]; “no binding” in [9]; “no binding” in test [10]; “no binding (tested: 1 µM)” in test [11]. Also, the Kd in [5] was 34 nM; in test [6] it was 3.8 nM. The koff in test [6] was 0.00108 s⁻¹. Also, the kon in test [6] stood at 290000 M⁻¹ s⁻¹.

For orientation: Kd means the free concentration of one partner at which half of the binding sites on the other are occupied at equilibrium, for simple one-to-one binding. Usually koff stands for the first-order rate constant of dissociation. One may read the kon as the rate constant with which the complex forms.
